Reference: paper PMC8531451, “1,1'-Carbonyldiimidazole-copper nanoflower enhanced collapsible laser scribed graphene engraved microgap capacitive aptasensor for the detection of milk allergen”

Target: T1, beta-lactoglobulin (bovine, UniProt P02754 17-178)
T1 sequence: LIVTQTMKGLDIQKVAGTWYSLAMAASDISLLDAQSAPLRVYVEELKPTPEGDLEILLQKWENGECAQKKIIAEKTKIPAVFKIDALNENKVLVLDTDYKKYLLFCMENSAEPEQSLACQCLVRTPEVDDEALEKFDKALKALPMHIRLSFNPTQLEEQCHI
Experiment: non-faradaic capacitive aptasensor; CDI-Cu nanoflower/LSG microgap; linear 1 ag/ml-100 fg/ml, LOD 1 ag/ml; Sensor: 10 mM PBS pH 7.4, target incubated 10 min; aptamer folded in 1 mM MgCl2, 10 mM PBS (90 °C 5 min); ELASA: coating at 4 °C overnight, 2% BSA block, PBS washes
Details: protein: commercial; chain copies: 2; label: biotin; 3' A tail of aptamer paired with T20 oligolinker; aptamer part single-stranded

B1: beta-lactoglobulin aptamer with 3' A tail, annealed to biotinylated T20 oligolinker (mixed)
DNA 1: ATACCAGCTTATTCAATTCGACGATCGGACCGCAGTACCCACCCACCAGCCCCAACATCATGCCCATCCGTGTGTGAGATAGTAAGTGCAATCTAAAAAAAAAAAAAAAAAAAAAAAA
DNA 2: TTTTTTTTTTTTTTTTTTTT
modifications: 5' biotin (5Biosg) on oligolinker S1
  binding result: binds
